Measured values reported in publication PMC7026663.
Values belong to the substance of their own block, whether it stands above or below them.

Key:
[1] = target: nucleosome core particle (NCP); experiment: AUC
[2] = target: nucleosome core particle (NCP); experiment: ITC
[3] = target: nucleosome core particle (NCP); experiment: native gel or EMSA
[4] = target: AtFKBP53 NTD (residues 1–112) (Arabidopsis thaliana) (UniProt Q93ZG9); experiment: AUC
[5] = target: GST-tagged AtFKBP53 NTD (Arabidopsis thaliana)

Chain of AtFKBP53 NTD (residues 1–112) (Q93ZG9 1-112): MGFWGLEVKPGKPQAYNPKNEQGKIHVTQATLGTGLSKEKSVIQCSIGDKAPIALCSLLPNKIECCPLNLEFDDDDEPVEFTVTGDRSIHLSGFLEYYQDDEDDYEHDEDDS
Chain of AtFKBP53 NTD (residues 1–112) (Arabidopsis thaliana) (Q93ZG9 1-112): as above
Chain of GST-tagged AtFKBP53 NTD (domain or fragment) (Q93ZG9 whole entry, the tested form may be a part): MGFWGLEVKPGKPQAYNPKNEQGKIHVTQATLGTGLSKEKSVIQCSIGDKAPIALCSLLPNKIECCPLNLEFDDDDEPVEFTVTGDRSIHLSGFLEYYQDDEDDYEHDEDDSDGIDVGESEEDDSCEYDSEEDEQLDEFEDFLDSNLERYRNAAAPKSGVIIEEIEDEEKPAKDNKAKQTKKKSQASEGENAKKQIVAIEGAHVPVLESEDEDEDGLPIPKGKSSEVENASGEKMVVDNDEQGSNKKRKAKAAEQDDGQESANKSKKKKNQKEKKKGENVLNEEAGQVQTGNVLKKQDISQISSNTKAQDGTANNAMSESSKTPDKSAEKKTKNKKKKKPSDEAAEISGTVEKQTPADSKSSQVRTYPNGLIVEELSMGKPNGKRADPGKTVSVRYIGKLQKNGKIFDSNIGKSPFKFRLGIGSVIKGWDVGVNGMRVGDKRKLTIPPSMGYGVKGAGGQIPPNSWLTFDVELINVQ

stoichiometry N (NTD pentamers per NCP) [1]: 2
Kd1 (first site, sequential binding model) [2]: 0.18 µM
Kd2 (second site, sequential binding model) [2]: 2.72 µM
stoichiometry N (binding sites on NCP) [2]: 2
stoichiometry N (NTD pentamers per NCP) [3]: 2
Substance: AtFKBP53 NTD (residues 1–112) (from UniProt Q93ZG9 1-112) (domain or fragment)

stoichiometry N (H2A/H2B dimer per NTD pentamer) [4]: 1
Substance: H2A/H2B dimer (from UniProt P06897;P02281) (complex)

stoichiometry N (H3/H4 tetramer per NTD pentamer) [4]: 1
Substance: H3/H4 tetramer (from UniProt P84233;P62799) (complex)

stoichiometry N [5]: 2
Substance: GST-tagged AtFKBP53 NTD (domain or fragment)
